Test results taken from patent US20230218637A1, “COMPOSITIONS AND METHODS FOR DIAGNOSING, PREVENTING, AND TREATING AMYOTROPHIC LATERAL SCLEROSIS IN PATIENTS WITH HYPOFUNCTIONAL ANTI-TRYPSIN ACTIVITY” (Motor Life Sciences, LLC, priority 2020, published 2023).

Key:
[1] = test system: mutant SOD mice (SOD1G93A); assay: Ursolic acid treatment of ALS mouse model (grip test, rotarod); assay type: in vivo; conditions: ursolic acid 200 mg/kg daily over eight weeks
Procedure: In ALS mouse models, like mutant SOD mice (SOD1G93A)), ALS is diagnosed based on hanging wire grip test (where the latency of falling is measured in seconds), grip strength analysis, rotarod time trial test, where a decrease in time balanced on the rod correlates to disease positive mice. Weight is measured to determine hypotrophy of muscle mass over time. Low levels of serum serpinA1 proteins levels, serum protease inhibitor function, serum trypsin protein levels, and serum functional trypsin level correlates with ALS. Once the mice have been diagnosed with ALS, the mice are given daily treatments of ursolic acid (200 mg/kg) over the course of eight weeks. Levels of serum serpinA1 proteins, serum protease inhibitor function, serum trypsin protein, and serum functional trypsin are assessed over time monitoring for an increases. Grip test and rotarod times are assessed over time as a correlation for delay in disease progression.

[2] = test system: alpha-1 anti-trypsin; conditions: cited from earlier work; for augmenting blood and lung alpha-1 anti-trypsin levels compared with Prolastin / safety compared with Prolastin: basis of approval
[3] = molecular target: T1, alpha1-protease inhibitor (Homo sapiens, UniProt P01009); conditions: cited from earlier work
T1 construct: a human protein has been isolated from pooled human serum samples and lyophilized; tissue Baxter / Takeda (Aralast NP); host or cells: pooled human serum / plasma
T1 sequence (P01009 25-418): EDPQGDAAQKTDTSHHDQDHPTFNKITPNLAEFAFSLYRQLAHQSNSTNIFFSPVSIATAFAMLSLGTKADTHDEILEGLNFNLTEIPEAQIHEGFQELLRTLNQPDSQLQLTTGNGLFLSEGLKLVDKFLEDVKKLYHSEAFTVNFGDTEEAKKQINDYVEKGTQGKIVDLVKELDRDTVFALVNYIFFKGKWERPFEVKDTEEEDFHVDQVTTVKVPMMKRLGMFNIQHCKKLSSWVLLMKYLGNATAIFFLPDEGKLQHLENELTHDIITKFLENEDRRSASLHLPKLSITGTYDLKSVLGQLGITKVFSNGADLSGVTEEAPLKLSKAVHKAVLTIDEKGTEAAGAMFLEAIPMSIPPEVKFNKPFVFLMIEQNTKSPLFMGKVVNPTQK

Row | Compound | performance (grip test, rotarod) versus non-treatment group [1] | safety record ([2]; marketed since 1988) | augmenting blood and lung alpha-1 anti-trypsin levels compared with Prolastin [2] | safety compared with Prolastin [2] | specific activity [3]
1 | C[C@H]1[C@H](C)CC[C@]2(C(=O)O)CC[C@]3(C)C(=CC[C@@H]4[C@@]5(C)CC[C@H](O)C(C)(C)[C@@H]5CC[C@]43C)[C@H]12 [ursolic acid] | outperform the non-treatment group |  |  |  | 
2 | Prolastin: alpha-1 antitrypsin augmentation therapy product from Grifols, marketed since 1988 |  | excellent safety record |  |  | 
3 | Zemaira: FDA approved alpha-1 antitrypsin deficiency drug from CSL Behring |  |  | comparable to Prolastin | comparable to Prolastin | 
4 | Aralast NP: sterile, lyophilized preparation of human alpha-1 antitrypsin protein derived from large pools of human plasma |  |  | comparable to Prolastin | comparable to Prolastin | 0.55 mg active alpha1-protease inhibitor/mg of total protein
5 | Glassia: FDA approved alpha-1 antitrypsin deficiency drug from Kamada Ltd. |  |  | comparable to Prolastin | comparable to Prolastin | 
